The supplement of paper PMC10724198
± gives the standard deviation of the averaged measurements.

Each sequence was assayed on Saccharomyces cerevisiae (assay: protein stability index of tFT-peptide fusion (C-terminal peptide) (PSI (0-1 scale)); higher = more stable (slower turnover)). Details: genetic background: wild type; temperature: 30 C.
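Note: PSI is a weighted mean of sequencing reads over stability bins, variants kept only with over 10 reads, mCherry proximal and sfGFP distal, peptide attached via GGGS linker.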

In order of falling protein stability index:
1. LPFRLARLSQEG  0.849 ± 0.016
2. LRCRLFIWDGVK  0.809 ± 0.038
3. LQVTLALSAALP  0.802 ± 0.079
4. LPPPPSASPPRP  0.794 ± 0.06
5. LPPPSLPGPSAS  0.786 ± 0.059
6. LPSLHPPPSPQP  0.777 ± 0.08
7. LRGVAIAARYPR  0.766 ± 0.02
8. LPTSPMSCHTLT  0.76 ± 0.088
9. LPPAIPSTPPTP  0.756 ± 0.0087
10. LPPLTSPSIVRG  0.749 ± 0.04
11. LRVNGIVTVSGF  0.749 ± 0.13
12. LPKSRIGPILNG  0.743 ± 0.12
13. LPRLPPPPHPCP  0.741 ± 0.013
14. LPPPPLPPPVFP  0.74 ± 0.018
15. LPPPPAPSSAPL  0.735 ± 0.14
16. LPPLCLPPPAHP  0.733 ± 0.026
17. LRVGMSSASVFQ  0.733 ± 0.03
18. LPPSSSPCPLPS  0.7304 ± 0.0053
19. LPPPLPPRPSPP  0.728 ± 0.089
20. LRCPLMYDIFYN  0.726 ± 0.074
21. LPPRPPTHSPPP  0.722 ± 0.011
22. LPPPPTAPPPSR  0.719 ± 0.058
23. LSCWLGCVALGW  0.718 ± 0.13
24. LPPASHLPYLVL  0.717 ± 0.019
25. LRRPAFCAFTST  0.715 ± 0.024
26. LPWLTASRLVMR  0.714 ± 0.043
27. LQFGHGDFRSTV  0.713 ± 0.093
28. LPKARPRTNPPP  0.712 ± 0.15
29. LPTPVRRPPSPP  0.71 ± 0.028
30. LPRPPAPPMRYM  0.70928 ± 9.3e-05
31. LPLYYPPGTREL  0.708 ± 0.027
32. LRIQKIVSGALM  0.707 ± 0.01
33. LPCTTPLLFTPV  0.706 ± 0.21
34. LRSPPSLLPLSL  0.7056 ± 0.0033
35. LPPPRPGLPFTF  0.704 ± 0.057
36. LPPRPLPPPSRT  0.7 ± 0.076
37. LPRLTPARPRHH  0.7 ± 0.1
38. LPSSFLPVPAPP  0.6976 ± 0.00082
39. LSAVRFGRVWGG  0.6959 ± 0.0043
40. LRSIAVLPPSPF  0.695 ± 0.039
41. LPDLSPIRRCPL  0.694 ± 0.04
42. LPERASQARGRP  0.694 ± 0.17
43. LRDYLLWRECTL  0.692 ± 0.033
44. LPAPSPSPHPPA  0.689 ± 0.026
45. LPPLSLSPPLPP  0.689 ± 0.049
46. LPPLAPPPPPLP  0.688 ± 0.026
47. LPPLPPPPPLPL  0.688 ± 0.11
48. LRQKKIELPIEP  0.687 ± 0.02
49. LPLPIPPFPCPP  0.686 ± 0.017
50. LPPPPPLPSSPL  0.685 ± 0.018
51. LPLALSAPPAQP  0.683 ± 0.042
52. LQRAPKLLPSSS  0.683 ± 0.03
53. LRAVRDSLMSQC  0.681 ± 0.033
54. LPLPSTYHHISK  0.68 ± 0.063
55. LPPPYPRPPPFR  0.68 ± 0.005
56. LPCGRGQLVGSQ  0.677 ± 0.032
57. LSHLILPPSSPS  0.677 ± 0.013
58. LSEVFLSMNVVL  0.676 ± 0.06
59. LPLAMTTIGISL  0.675 ± 0.011
60. LPPSSLTLSPSS  0.675 ± 0.045
61. LPILPQHQPTTD  0.674 ± 0.014
62. LPSPHPPPPPLS  0.673 ± 0.13
63. LPSHRSPITSFL  0.668 ± 0.14
64. LRGCGSGAGWFL  0.667 ± 0.028
65. LPLCSPPAPPSS  0.666 ± 0.026
66. LPPPPRPPPPPP  0.663 ± 0.021
67. LRSQDFKGHLRT  0.6606 ± 0.0029
68. LQRHSSQQTTSA  0.658 ± 0.025
69. LSFLYCSDNKVA  0.6562 ± 0.006
70. LQATFRRHLNLV  0.655 ± 0.032
71. LPRVSMTPTRVG  0.6535 ± 0.0029
72. LRGLRALRGDLT  0.654 ± 0.05
73. LPLLALPLALHP  0.653 ± 0.0077
74. LPTLPPPTPYAL  0.652 ± 0.044
75. LRPKESQEYIHR  0.652 ± 0.079
76. LPLIRQLPNPPP  0.648 ± 0.031
77. LPLMVPIPLLLP  0.648 ± 0.024
78. LPGGRRPSQCPA  0.645 ± 0.01
79. LPLWQHPTKPVH  0.64238 ± 8.1e-05
80. LPPPRPASPGSP  0.642 ± 0.051
81. LRVFKVCSGISG  0.642 ± 0.045
82. LSGLQGPGVSCC  0.642 ± 0.021
83. LRLLCVSGSSVR  0.638 ± 0.065
84. LPPRTHSPLSSP  0.636 ± 0.11
85. LPPSPLMTRTCA  0.6343 ± 0.0041
86. LRRSPPNPLLKA  0.634 ± 0.021
87. LRCNAQSMICLT  0.633 ± 0.081
88. LPRSPPCCHVND  0.628 ± 0.02
89. LPVSISIGNVGR  0.627 ± 0.025
90. LRSRTPPSPHFP  0.626 ± 0.0069
91. LPPPRSPPPLSA  0.622 ± 0.057
92. LPPPFPSPPRPP  0.617 ± 0.14
93. LRLTTNTGCTIS  0.611 ± 0.023
94. LRGILGTLINGV  0.609 ± 0.097
95. LPPPPPHRTGDC  0.5859 ± 0.0028
96. LRLSCGDRFRVG  0.557 ± 0.019
97. LRRSRGTVWRWY  0.5535 ± 0.0032
98. LRPLQPCGLIQC  0.52 ± 0.022
99. LRTLVARWIVGQ  0.515 ± 0.021
100. LSAVHYNRAVFA  0.5141 ± 0.0049
101. LRFLLLRFILRS  0.472 ± 0.048
